This test has as its target USP14 (UniProt P54578). Nature of the test: co-IP, immunoblot. The following applies: reference: ALKBH5 wild type; sites S64,S69. For orientation: In western blotting, separated proteins are transferred to a membrane and probed.

“ALKBH5 (from UniProt Q6P6C2) ALKBH5 S64A/S69A”: the “binding against the reference” value is “weaker”.

For the origin of these results see publication PMC11840735.
